Results as given in patent US20170022281A1 (AbbVie / Abbott, published 2017).

T1: rat PRLR ECD-Fc fusion protein (rat, UniProt P05710 20-229)
T1 construct: extracellular domain; not shown: Fc region (captured by goat anti-human Fc)
T1 sequence (looked up): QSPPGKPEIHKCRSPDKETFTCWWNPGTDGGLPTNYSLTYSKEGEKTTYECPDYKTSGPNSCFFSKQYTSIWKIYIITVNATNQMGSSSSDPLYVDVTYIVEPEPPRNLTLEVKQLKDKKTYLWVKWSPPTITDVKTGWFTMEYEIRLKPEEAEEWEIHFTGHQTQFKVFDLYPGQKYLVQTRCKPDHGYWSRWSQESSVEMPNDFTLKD

T2: mouse PRLR ECD-Fc fusion protein (mouse, UniProt Q08501 20-229)
T2 construct: extracellular domain; not shown: Fc region (captured by goat anti-human Fc)
T2 sequence (looked up): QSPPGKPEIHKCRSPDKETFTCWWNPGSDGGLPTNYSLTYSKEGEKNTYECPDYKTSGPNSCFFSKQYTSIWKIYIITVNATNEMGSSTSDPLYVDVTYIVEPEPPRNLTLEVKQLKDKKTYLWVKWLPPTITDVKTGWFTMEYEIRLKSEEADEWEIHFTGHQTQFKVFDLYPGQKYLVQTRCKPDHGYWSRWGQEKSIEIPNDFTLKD

T3: human PRLR on cells (human, UniProt P16471 25-622)
T3 sequence: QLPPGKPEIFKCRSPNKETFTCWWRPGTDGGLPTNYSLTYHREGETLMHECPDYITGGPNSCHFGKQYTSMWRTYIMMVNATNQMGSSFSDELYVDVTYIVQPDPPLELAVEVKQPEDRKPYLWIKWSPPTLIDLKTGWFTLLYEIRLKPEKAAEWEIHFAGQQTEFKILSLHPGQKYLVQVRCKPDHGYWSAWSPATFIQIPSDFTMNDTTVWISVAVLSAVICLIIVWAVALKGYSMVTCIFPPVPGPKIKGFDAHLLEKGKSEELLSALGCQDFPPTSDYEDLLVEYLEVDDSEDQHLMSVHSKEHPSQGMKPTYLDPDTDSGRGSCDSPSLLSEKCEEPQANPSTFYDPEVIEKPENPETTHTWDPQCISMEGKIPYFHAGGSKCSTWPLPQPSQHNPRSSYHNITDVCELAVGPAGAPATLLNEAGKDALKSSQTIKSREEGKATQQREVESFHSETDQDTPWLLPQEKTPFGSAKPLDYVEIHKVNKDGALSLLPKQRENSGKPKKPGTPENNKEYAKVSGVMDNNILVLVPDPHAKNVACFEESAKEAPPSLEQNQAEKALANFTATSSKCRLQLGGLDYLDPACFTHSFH

T4: mouse PRLR on Baf3-mPRLR cells (mouse, UniProt Q08501 20-608)
T4 sequence (looked up): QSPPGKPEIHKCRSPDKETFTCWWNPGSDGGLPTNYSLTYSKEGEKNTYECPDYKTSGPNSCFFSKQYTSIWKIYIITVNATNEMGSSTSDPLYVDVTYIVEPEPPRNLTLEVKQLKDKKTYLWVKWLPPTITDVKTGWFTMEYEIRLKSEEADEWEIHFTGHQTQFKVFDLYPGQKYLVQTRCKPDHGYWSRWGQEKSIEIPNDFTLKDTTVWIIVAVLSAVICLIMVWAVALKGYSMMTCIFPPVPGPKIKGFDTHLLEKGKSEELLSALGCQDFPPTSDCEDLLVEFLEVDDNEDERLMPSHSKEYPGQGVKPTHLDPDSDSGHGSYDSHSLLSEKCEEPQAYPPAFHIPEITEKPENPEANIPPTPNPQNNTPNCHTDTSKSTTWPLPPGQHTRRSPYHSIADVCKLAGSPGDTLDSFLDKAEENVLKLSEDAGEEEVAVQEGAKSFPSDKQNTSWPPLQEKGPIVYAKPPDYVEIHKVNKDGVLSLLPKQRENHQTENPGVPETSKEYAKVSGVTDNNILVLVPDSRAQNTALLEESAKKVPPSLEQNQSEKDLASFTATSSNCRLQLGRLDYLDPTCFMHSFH

T5: human PRLR (Biacore antigen) (human, UniProt P16471 25-234, limits assumed)
T5 construct: The construct injected over captured antibody is not described (a soluble form is likely); also called huPRLR
T5 sequence: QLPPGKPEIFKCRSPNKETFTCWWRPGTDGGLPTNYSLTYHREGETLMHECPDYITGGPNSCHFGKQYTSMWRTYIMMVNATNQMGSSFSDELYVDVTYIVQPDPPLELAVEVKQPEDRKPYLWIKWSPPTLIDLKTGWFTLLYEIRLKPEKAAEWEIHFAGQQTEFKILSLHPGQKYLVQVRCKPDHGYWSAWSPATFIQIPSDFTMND


Key:
[1] = target: T1, rat PRLR ECD-Fc fusion protein; experiment: ELISA on ECD
In short: (§1)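 PRLR was captured on blocked plates for 1 h, then incubated 1 h with serial antibody dilutions in PBS pH 7.4/0.05% Tween 20 containing 10% Superblock. HRP secondary and TMB gave signal read at 450 nm, and EC50 came from curve fitting.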

[2] = target: T2, mouse PRLR ECD-Fc fusion protein; experiment: ELISA on ECD
In short: as §1

human PRLR on cells = target: T3, human PRLR on cells; experiment: cell-based or functional assay
[3] = target: cyno PRLR on Baf3-cyPRLR cells (cyno); experiment: cell-based or functional assay
[4] = target: T4, mouse PRLR on Baf3-mPRLR cells; experiment: cell-based or functional assay
[5] = target: T5, human PRLR (Biacore antigen); experiment: SPR simultaneous binding; PRLR held by surface mAb Ab30
Experimental: (§2) Running buffer was HBS-EP+ (10 mM Hepes, pH7.4, 150 mM NaCl, 3 mM EDTA, 0.05% surfactant). Assay was performed at 12° C. using Biacore T200 and CM5 sensor chips with anti-human IgG (Pierce) amine-coupled in all 4 flow cells to ˜2000 RU.
(§3) Separate test mAbs were captured in flowcells 2, 3 & 4 (flowcell 1 was reference, no test mAb). All 4 flowcells were then blocked by injection with isotype control mAb at 50 ug/ml. All 4 flowcells were then injected with antigen or buffer only (buffer only is for double referencing, done for each mAb pair individually). All 4 flowcells were then injected with 2nd test mAb at 10 ug/ml. All 4 flowcells were then regenerated with glycine, pH1.5.

[6] = target: T5, human PRLR (Biacore antigen); experiment: SPR simultaneous binding; PRLR held by surface mAb Ab39
Experimental: as §2, §3

[7] = target: T5, human PRLR (Biacore antigen); experiment: SPR simultaneous binding; PRLR held by surface mAb Ab48
Experimental: as §2, §3

Binder	EC50 [1]	EC50 [2]	T47D pPRLR ELISA IC50 (human PRLR on cells)	Baf3-cyPRLR proliferation IC50 [3]	Baf3-mPRLR proliferation IC50 [4]	Baf3-hPRLR proliferation IC50 (human PRLR on cells)	solution mAb binding, % of PRLR binding [5]	solution mAb binding, % of PRLR binding [6]	solution mAb binding, % of PRLR binding [7]
Ab12 (antibody, V domains shown, murine monoclonal, isotype G2a; reported as PRLR agonist; also called murine Ab12) VH: DVQLQESGPGLVKPSQSLSLTCTVTGYSITSDYAWNWIRQFPGNKLEWMGYIGYSGRTSFNPSLKSRISITRDTSKNQFFLQLNSVTTEDTATYYCARGGFAMDYWGQGTSVTVSS VL: QIVLTQSPGIMSASPGEKVTMTCSASSSVTYMYWYQQKPRSSPKPWIYLTSNLASGVPARFSGSGSGTSYSLTISSMEAEDGATYYCQQWSSTPPLTFGGGTKLELN	116 pM	121 pM	0.538 µg/mL	> 30 µg/mL	> 30 µg/mL	–	–	–	–
Ab6 (antibody, V domains shown, murine monoclonal, isotype G1; also called murine Ab6) VH: QVQLQQPGAELVMPGSSVKLSCKASGYTFTTYWMHWVKQRPGQGLEWIGEIDPSDSYSNYNQKFKDKATLTVDKSSSTAYMQLSSLTSEDSAVYYCARNGGLGPAWFSYWGQGTLVTVSA VL: DIVMTQSQKFMSTTVGDRVSITCKASQYVGTAVAWYQQKPGQSPKLLIYSASNRYTGVPDRFTDSGSGTDFTLTISNLQSEDLADYFCQQYSSYPWTFGGGTKLEIK	–	–	0.039 µg/mL	0.44 µg/mL	> 30 µg/mL	0.26 µg/mL	–	–	–
chAb6 (antibody, human IgG1, kappa, V domains shown, chimeric, murine variable and human G1/kappa constant regions) VH: QVQLQQPGAELVMPGSSVKLSCKASGYTFTTYWMHWVKQRPGQGLEWIGEIDPSDSYSNYNQKFKDKATLTVDKSSSTAYMQLSSLTSEDSAVYYCARNGGLGPAWFSYWGQGTLVTVSA VL: DIVMTQSQKFMSTTVGDRVSITCKASQYVGTAVAWYQQKPGQSPKLLIYSASNRYTGVPDRFTDSGSGTDFTLTISNLQSEDLADYFCQQYSSYPWTFGGGTKLEIKT	–	–	–	12.2 µg/mL	–	0.28 µg/mL	-1%	-2%	0%
Ab5 (antibody, V domains shown, murine monoclonal, isotype G2a; also called murine Ab5) VH: QVQLQQPGAELVRPGTSVKLSCKASGYTFTSFWMHWVKQRPGQGLEWIGVIDPSDTYTNYNQKFKGKATLTVDTSSSTAYMQLSSLTSEDSAVYYCARGDYSNWFTYWGQGTLVTVSA VL: DVVMTQTPLSLPVSLGDQASISCRSSQRLVHSNGNTYLHWYLQKPGQSPKLLIYKVSNRFSGVPDRFSGSGSGTDFTLKISRVEAEDLGVYFCSQSTHVPWTFGGGTKLEIK	80 pM	98 pM	0.038 µg/mL	0.38 µg/mL	1.03 µg/mL	0.24 µg/mL	–	–	–
Ab7 (antibody, V domains shown, murine monoclonal, isotype G1; also called murine Ab7) VH: QVQLQQPGAELVMPGTSVKLSCKASGYTFTSYWIHWVKQRPGQGLEWIGEIDPSDSYTNYNQKFKGKATLTVDRSSSTAYMQLSSLTSEDSAVYYCGRSFFTNWFAYWGQGTLVTVSA VL: DVVMTQTPLSLPVSLGDQASISCRSSQSLVHSNGNTYLHWYLQKPGQSPKLLIYKVSNRFSGVPDRFSGSGSGTDFTLKINRVEAEDLGVYFCSQSTHVPFTFGSGTKLEIK	135 pM	143 pM	0.08 µg/mL	0.3 µg/mL	3.55 µg/mL	0.28 µg/mL	–	–	–
Ab11 (antibody, V domains shown, murine monoclonal, isotype G1; also called murine Ab11) VH: EVKLVESGGGLVQPGGSLKLSCAASGFTFSDYYMFWVRQTPEKSLEWVAYISNGGGSTYYPDTVKGRFTISRDNAKNTLYLQMSRLKSEDTAMYYCSRQLFYYGSRGAMGYWGQGTSVTVSS VL: DVLMTQTPLSLPVSLGDQASISCRSSQSIVHSNGNTYLEWYLQKPGQSPKLLIYKVSNRFSGVPDRFSGSGSGTDFTLKISRVEAEDLGVYYCFQGSHVPFTFGSGTKLEIK	87 pM	86 pM	0.047 µg/mL	1.2 µg/mL	18.5 µg/mL	1.11 µg/mL	–	–	–
Ab13 (antibody, V domains shown, murine monoclonal, isotype G2a; also called murine Ab13) VH: QVQLQQPGAELVRPGTSVKLSCKASGYTFTSFWMHWVKQRPGQGLEWIGVIDPSDSHTNYNQKFKGKATLTVNTSSSTAYMHLSSLTSEDSAVYYCARGDYSNWFTYWGQGTLVTVSA VL: DVVMTQTPFSLPVSLGDQASISCRSSQSLVHSNGNTYLHWYLQKPGQSPKLLIYKVSNRFSGVPDRFSGSGSGTDFTLKISRVEAEDLELYFCSQSTHVPWTFGGGTKLEIK	85 pM	88 pM	0.047 µg/mL	0.85 µg/mL	4.69 µg/mL	0.32 µg/mL	–	–	–
Ab10 (antibody, V domains shown, murine monoclonal, isotype G2a; also called murine Ab10) VH: EVQLHQSGPELVKPGASVKISCKASGYTFTDYNMHWMKQSHGKSLEWIGYFYPYNGGTGYNQEFKNKATLTVDISSSTAYMELRRLTSEDSAVYYCARGGWGIYYAMDYWGQGTSVTVSS VL: DIQMTQSPASLSASVGETVTITCRASENIYSYLTWYQQKQGKSPQLLVYNAKTLAEGVPSRFSGSGSGTQFSLKINSLQPEDFGSYHCQHHSVTPLTFGAGTKLELK	234 pM	1140 pM	0.362 µg/mL	> 10 µg/mL	> 30 µg/mL	3.14 µg/mL	–	–	–
Ab39 (antibody, human IgG1, kappa, V domains shown, humanized from Ab7; G1; also called Ab4 HC.1a and Ab4 LC.1a) VH: EVQLVQSGAEVKKPGSSVKVSCKASGYTFTSYWIHWVRQAPGQGLEWIGEIDPSDSYTNYNQKFKGRATLTVDKSSSTAYMELSSLRSEDTAVYYCARSFFTNWFAYWGQGTLVTVSS VL: DVVMTQTPLSLSVTPGQPASISCRSSQSLVHSNGNTYLHWYLQKPGQSPQLLIYKVSNRFSGVPDRFSGSGSGTDFTLKISRVEAEDVGVYFCSQSTHVPFTFGGGTKVEIKR	–	–	–	0.25 µg/mL	> 30 µg/mL	0.27 µg/mL	0%	-2%	2%
